{"source": "the RNAGym collection of RNA variant scans (doi:10.1021/acssynbio.7b00057)", "parents": {"B1": {"name": "Pistol ribozyme (parent)", "chain": "GGGUCGUUGUUCCAUAAUCGCGUGGAUAUGGCACGCAAGUUUCUACCGGGCACCGUAAAUGUCCGACUGGAGCCGUUCGGGCGGCUAUAAACAGACCUCAGGCCCGAAGCGUGGCGGCACCUGCCGCCGGUGGUAAAAAAGAUCGGAAGAGCACACGUCU"}}}
{"variants_of": "B1", "test": "aptazyme ON/OFF ratio, guanine; higher = stronger switching; co-transcriptional cleavage with and without guanine"}
{"variant": "U7A U8A G9A U10A U11G C13A", "aptazyme ON/OFF ratio": 1.17}
{"variant": "U7A U8A G9A U10A U11G C13U", "aptazyme ON/OFF ratio": 1.16}
{"variant": "U7A G9U U10C U11G C12U C13A", "aptazyme ON/OFF ratio": 1.15}
{"variant": "U7A G9U U10C U11G C12U C13U", "aptazyme ON/OFF ratio": 1.27}
{"variant": "U7A G9U U10C U11G C12U C13G", "aptazyme ON/OFF ratio": 1.12}
{"variant": "U7A U8A G9A U10C U11A C12G C13U", "aptazyme ON/OFF ratio": 1.1}
{"variant": "U7A U8A G9A U10C U11A C12G C13A", "aptazyme ON/OFF ratio": 1.08}
{"variant": "U7A U8A G9A U10C U11A C12G C13G", "aptazyme ON/OFF ratio": 1.11}
{"variant": "U7A U8A G9A U10A U11G C12G", "aptazyme ON/OFF ratio": 1.16}
{"variant": "U7A U8A G9A U10A U11G C12U", "aptazyme ON/OFF ratio": 1.19}
{"variant": "U7A U8A G9A U10A U11G C12A", "aptazyme ON/OFF ratio": 1.04}
{"variant": "U7A U8A G9A U10A U11G C12G C13G", "aptazyme ON/OFF ratio": 1.32}
{"variant": "U7A U8A G9A U10A U11G C12G C13A", "aptazyme ON/OFF ratio": 1.25}
{"variant": "U7A U8A G9A U10A U11G C12G C13U", "aptazyme ON/OFF ratio": 1.59}
{"variant": "U7A G9U U10C U11G C12G C13A", "aptazyme ON/OFF ratio": 1.14}
{"variant": "U7A G9U U10C U11G C12G C13G", "aptazyme ON/OFF ratio": 1.16}
{"variant": "U7A G9U U10C U11G C12G C13U", "aptazyme ON/OFF ratio": 1.11}
{"variant": "U7A G9U U10G U11A C12G C13G", "aptazyme ON/OFF ratio": 1.21}
{"variant": "U7A G9U U10G U11A C12G C13U", "aptazyme ON/OFF ratio": 1.31}
{"variant": "U7A G9U U10G U11A C12G C13A", "aptazyme ON/OFF ratio": 1.41}
{"variant": "U7A U8A G9A U10A U11C C12U", "aptazyme ON/OFF ratio": 1.02}
{"variant": "U7A U8A G9A U10A U11C C12G", "aptazyme ON/OFF ratio": 1.17}
{"variant": "U7A U8A G9A U10A U11C C12A", "aptazyme ON/OFF ratio": 1.24}
{"variant": "U7A U8A G9A U10C U11G C12A C13A", "aptazyme ON/OFF ratio": 1.09}
{"variant": "U7A U8A G9A U10C U11G C12A C13G", "aptazyme ON/OFF ratio": 1.09}
{"variant": "U7A U8A G9A U10C U11G C12A C13U", "aptazyme ON/OFF ratio": 1.12}
{"variant": "U7A U8A G9A U10A U11A C12U C13U", "aptazyme ON/OFF ratio": 1.14}
{"variant": "U7A U8A G9A U10A U11A C12U C13G", "aptazyme ON/OFF ratio": 1.23}
{"variant": "U7A U8A G9A U10A U11A C12U C13A", "aptazyme ON/OFF ratio": 1.17}
{"variant": "U7A U8A G9A C12U C13U", "aptazyme ON/OFF ratio": 1.17}
{"variant": "U7A U8A G9A C12U C13G", "aptazyme ON/OFF ratio": 1.12}
{"variant": "U7A U8A G9A C12U C13A", "aptazyme ON/OFF ratio": 1.11}
{"variant": "U7A G9U U10G U11C C12G C13G", "aptazyme ON/OFF ratio": 1.17}
{"variant": "U7A G9U U10G U11C C12G C13U", "aptazyme ON/OFF ratio": 1.31}
{"variant": "U7A G9U U10G U11C C12G C13A", "aptazyme ON/OFF ratio": 1.15}
{"variant": "U7A G9U U11G C12A C13A", "aptazyme ON/OFF ratio": 1.18}
{"variant": "U7A G9U U11G C12A C13U", "aptazyme ON/OFF ratio": 1.22}
{"variant": "U7A G9U U11G C12A C13G", "aptazyme ON/OFF ratio": 1.36}
{"variant": "U7A U8A G9A U10A U11A C12G C13G", "aptazyme ON/OFF ratio": 1.28}
{"variant": "U7A U8A G9A U10A U11A C12G C13U", "aptazyme ON/OFF ratio": 1.13}
{"variant": "U7A U8A G9A U10A U11A C12G C13A", "aptazyme ON/OFF ratio": 1.14}
{"variant": "U7A U8A G9A U10A U11A C13U", "aptazyme ON/OFF ratio": 1.3}
{"variant": "U7A U8A G9A U10A U11A C13G", "aptazyme ON/OFF ratio": 1.17}
{"variant": "U7A U8A G9A U10A U11A C13A", "aptazyme ON/OFF ratio": 1.16}
{"variant": "U7A U8A G9A", "aptazyme ON/OFF ratio": 1.87}
{"variant": "U7A G9U U11G C12G C13U", "aptazyme ON/OFF ratio": 1.14}
{"variant": "U7A G9U U11G C12G C13A", "aptazyme ON/OFF ratio": 1.26}
{"variant": "U7A G9U U11G C12G C13G", "aptazyme ON/OFF ratio": 1.32}
{"variant": "U7A U8A G9A C13A", "aptazyme ON/OFF ratio": 1.11}
{"variant": "U7A U8A G9A C13U", "aptazyme ON/OFF ratio": 1.22}
{"variant": "U7A U8A G9A C13G", "aptazyme ON/OFF ratio": 1.11}
{"variant": "U7A U8A G9A C12A C13G", "aptazyme ON/OFF ratio": 1.06}
{"variant": "U7A U8A G9A C12A C13A", "aptazyme ON/OFF ratio": 1.06}
{"variant": "U7A U8A G9A C12A C13U", "aptazyme ON/OFF ratio": 1.07}
{"variant": "U7A U8A G9A U10A U11C", "aptazyme ON/OFF ratio": 1.04}
{"variant": "U7A U8A G9A U10A U11G", "aptazyme ON/OFF ratio": 1.29}
{"variant": "U7A U8A G9A U10A U11A", "aptazyme ON/OFF ratio": 1.15}
{"variant": "U7A U8A G9A U10A C12A C13A", "aptazyme ON/OFF ratio": 1.11}
{"variant": "U7A U8A G9A U10A C12A C13U", "aptazyme ON/OFF ratio": 1.09}
{"variant": "U7A U8A G9A U10A C12A C13G", "aptazyme ON/OFF ratio": 1.23}
{"variant": "U7A G9U U11C C12G C13G", "aptazyme ON/OFF ratio": 1.12}
{"variant": "U7A G9U U11C C12G C13A", "aptazyme ON/OFF ratio": 1.11}
{"variant": "U7A G9U U11C C12G C13U", "aptazyme ON/OFF ratio": 1.12}
{"variant": "U7A U8A C12U C13U", "aptazyme ON/OFF ratio": 1.38}
{"variant": "U7A U8A C12U C13G", "aptazyme ON/OFF ratio": 1.24}
{"variant": "U7A U8A C12U C13A", "aptazyme ON/OFF ratio": 1.29}
{"variant": "U7A U8A", "aptazyme ON/OFF ratio": 2.94}
{"variant": "U7A U8A C12U", "aptazyme ON/OFF ratio": 1.59}
{"variant": "U7A U8A C12G", "aptazyme ON/OFF ratio": 1.41}
{"variant": "U7A U8A C12A", "aptazyme ON/OFF ratio": 1.76}
{"variant": "U7A U8A G9A U10C U11C C12A", "aptazyme ON/OFF ratio": 1.18}
{"variant": "U7A U8A G9A U10C U11C C12G", "aptazyme ON/OFF ratio": 1.05}
{"variant": "U7A U8A G9A U10C U11C C12U", "aptazyme ON/OFF ratio": 1.04}
{"variant": "U7A G9U U10C U11G", "aptazyme ON/OFF ratio": 1.32}
{"variant": "U7A G9U U10C U11C", "aptazyme ON/OFF ratio": 1.07}
{"variant": "U7A G9U U10C U11A", "aptazyme ON/OFF ratio": 1.31}
{"variant": "U7A G9U U11C C12A C13A", "aptazyme ON/OFF ratio": 1.24}
{"variant": "U7A G9U U11C C12A C13G", "aptazyme ON/OFF ratio": 1.16}
{"variant": "U7A G9U U11C C12A C13U", "aptazyme ON/OFF ratio": 1.24}
{"variant": "U7A U8A G9A U10A U11C C13G", "aptazyme ON/OFF ratio": 1.06}
{"variant": "U7A U8A G9A U10A U11C C13U", "aptazyme ON/OFF ratio": 1.08}
{"variant": "U7A U8A G9A U10A U11C C13A", "aptazyme ON/OFF ratio": 1.05}
{"variant": "U7A G9U U10C U11A C12A", "aptazyme ON/OFF ratio": 1.15}
